Where “and” joins values, the source holds several entries; their conditions need not be identical. Equal entries are not always repeated.
B1: M protein of Pipistrellus bat coronavirus HKU5 (batCOV5-M), wild type (natural protein)
chain: MASSNVTLSNDEVLRLVKDWNFTWSVVFLLITIVLQYGYPSRSMFVYVIKMFVLWLLWPASMALSIFCAVYPIDLASQIISGILAATSCAMWISYFVQSIRLFMRTGSWWSFNPESNCLLNVPIGGTTVVRPLVEDSTSVTAVVTDGYLKMAGMHFGACDFQRLPSEVTVAKPNVLIALKMIKRQAYGTNSGVAIYHRYKAGNYRRPPIIQDQELALLRA
B2: batCOV5-M, M protein of Pipistrellus bat coronavirus HKU5, affinity- and SEC-purified (cross-linking, MST) (natural protein)
chain: MASSNVTLSNDEVLRLVKDWNFTWSVVFLLITIVLQYGYPSRSMFVYVIKMFVLWLLWPASMALSIFCAVYPIDLASQIISGILAATSCAMWISYFVQSIRLFMRTGSWWSFNPESNCLLNVPIGGTTVVRPLVEDSTSVTAVVTDGYLKMAGMHFGACDFQRLPSEVTVAKPNVLIALKMIKRQAYGTNSGVAIYHRYKAGNYRRPPIIQDQELALLRA

Key:
[1] = molecular target: batCOV5-N3 [change] (residues 391-427 of batCOV5 N protein) fused to C-terminal GFP-His10 (Pipistrellus bat coronavirus HKU5); test: MST; conditions: both partners purified
[2] = molecular target: batCOV5-N3 [change] (residues 391-427 of batCOV5 N protein) fused to C-terminal GFP-His10 (Pipistrellus bat coronavirus HKU5); test: MST; conditions: both partners purified; remark: listed apart in the source
[3] = molecular target: batCOV5-N3 [change] (residues 391-427 of batCOV5 N protein) fused to C-terminal GFP-His10 (Pipistrellus bat coronavirus HKU5); test: MST; conditions: both partners purified; remark: listed apart in the source
[4] = molecular target: batCOV5-N3 [change] (residues 391-427 of batCOV5 N protein) fused to C-terminal GFP-His10 (Pipistrellus bat coronavirus HKU5); test: MST; conditions: both partners purified; remark: listed apart in the source
cross-linking = molecular target: the molecule itself; test: cross-linking
[5] = molecular target: batCOV5-N3 (residues 391-427) with C-terminal GFP-His10 (MST) (Pipistrellus bat coronavirus HKU5, UniProt A3EXD7 391-427); test: MST; conditions: both partners purified

Binder	Kd [1]	Kd [2]	Kd [3]	Kd [4]	stoichiometry N (cross-linking)	Kd [5]
B1	3.5 µM	3.07 µM	4.83 µM	1.9 µM	4 and 6	
B2						0.77 µM

— PMC9982069 (PNAS Nexus, 2023)
